Biological target: the molecule itself
Experiment: SEC; HiLoad Superdex 200 PG, 20 mM Tris-HCl, 100 mM NaCl, pH 7.4; apo protein after Strep-tag purification; elution profile overlaid with that of a protein of known size (25.0 kDa)

B1: StrepMSMEG_0243 (truncated MSMEG_0243 lacking the predicted signal peptide) (natural protein, Mycobacterium smegmatis mc2155, UniProt A0QP20 26-116, looked up)
chain: DPAPNPPNCTAADLAGVASGVSAGTSAYLFTHPQVNDFFTSLEGLPREEVKPKVADYLAANPQVKDELTAVRQPLVDLKNRCGTAPAPELP
notes: truncated version lacking the predicted signal peptide (predicted cleavage site between pos. 25 and 26: ALA-DP); The methods name the vector once as pET-22(b)+ and once as pET-28(b)+; vector-derived residues may be present; also called apo-MSMEG_0243; source: E. coli Bl21 Rosetta, purified (Streptavidin beads, size exclusion chromatography)
  stoichiometry N: 2

Source: PMC7516205, “The Two-Component Locus MSMEG_0244/0246 Together With MSMEG_0243 Affects Biofilm Assembly in M. smegmatis Correlating With Changes in Phosphatidylinositol Mannosides Acylation” (Frontiers in Microbiology, 2020)
